For 3 substances, migration of WT GMP- and CMP-derived PACs in a transwell Boyden chamber, fold over BSA control, migration of WT CMP-derived PACs in a transwell Boyden chamber, fold over BSA control and migration of WT GMP-derived PACs in a transwell Boyden chamber, fold over BSA control results are on record in patent US20140162947A1.

Some targets named below: CCR7 (mouse) (UniProt P47774); CXCR3 (mouse) (UniProt O88410); CXCR4 (mouse) (UniProt P70658).
What all share (experiment): cell-based or functional assay

Chain of UniProt P70658 (P70658 whole entry): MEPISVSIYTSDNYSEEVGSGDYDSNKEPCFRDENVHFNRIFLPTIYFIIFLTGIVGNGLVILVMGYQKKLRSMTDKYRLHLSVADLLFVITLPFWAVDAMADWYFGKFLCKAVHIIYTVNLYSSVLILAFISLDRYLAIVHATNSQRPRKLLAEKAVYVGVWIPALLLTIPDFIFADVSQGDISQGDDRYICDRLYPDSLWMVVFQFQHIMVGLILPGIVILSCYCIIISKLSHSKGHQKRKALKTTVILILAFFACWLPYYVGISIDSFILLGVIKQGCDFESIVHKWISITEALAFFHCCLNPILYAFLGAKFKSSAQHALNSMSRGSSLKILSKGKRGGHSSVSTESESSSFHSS
Chain of UniProt O88410 (O88410 whole entry): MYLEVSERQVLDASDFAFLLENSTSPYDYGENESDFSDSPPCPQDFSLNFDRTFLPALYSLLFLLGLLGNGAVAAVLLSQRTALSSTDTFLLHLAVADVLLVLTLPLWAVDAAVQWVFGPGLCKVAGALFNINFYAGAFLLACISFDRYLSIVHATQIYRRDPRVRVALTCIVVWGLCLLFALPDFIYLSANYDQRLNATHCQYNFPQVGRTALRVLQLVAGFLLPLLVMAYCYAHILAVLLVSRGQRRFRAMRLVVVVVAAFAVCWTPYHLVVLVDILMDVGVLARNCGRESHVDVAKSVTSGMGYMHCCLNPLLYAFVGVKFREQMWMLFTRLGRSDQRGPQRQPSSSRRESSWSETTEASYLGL
Chain of UniProt P47774 (P47774 25-378): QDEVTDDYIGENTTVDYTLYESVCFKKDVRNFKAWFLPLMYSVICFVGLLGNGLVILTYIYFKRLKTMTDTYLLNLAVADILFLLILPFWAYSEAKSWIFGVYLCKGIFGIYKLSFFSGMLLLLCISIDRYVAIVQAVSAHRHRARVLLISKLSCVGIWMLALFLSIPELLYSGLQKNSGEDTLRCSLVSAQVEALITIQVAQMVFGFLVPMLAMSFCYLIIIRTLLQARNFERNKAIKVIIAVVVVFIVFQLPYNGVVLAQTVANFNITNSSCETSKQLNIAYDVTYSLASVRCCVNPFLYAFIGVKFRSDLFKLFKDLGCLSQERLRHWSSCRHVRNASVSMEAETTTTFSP

In turn, CCL21 (ligand) displayed a migration of WT GMP- and CMP-derived PACs in a transwell Boyden chamber, fold over BSA control with CCR7 (mouse) of 4 fold.

Take CXCL10 (ligand): the migration of WT GMP- and CMP-derived PACs in a transwell Boyden chamber, fold over BSA control with CXCR3 (mouse) was found to be 4 fold.

For the substance SDF-1α (ligand), in the test with CXCR4 (mouse), the migration of WT CMP-derived PACs in a transwell Boyden chamber, fold over BSA control was 23 fold and the migration of WT GMP-derived PACs in a transwell Boyden chamber, fold over BSA control was 19 fold.
